The values below come from patent US20190270826A1 (Janssen / Centocor, published 2019).

As a reminder, the Kd is the free concentration of one partner at which half of the binding sites on the other are occupied at equilibrium, for simple one-to-one binding. One may read the koff as a measure of how fast the partners let go of each other. In general, kon refers to the second-order rate constant of association.

In test [1] the target is T1, recombinant human IL1RAP ECD (human, UniProt Q9NPH3 21-367).
T1 construct: His-tagged; also called hIL1RAP-ECD; rhuIL1RAP
T1 sequence: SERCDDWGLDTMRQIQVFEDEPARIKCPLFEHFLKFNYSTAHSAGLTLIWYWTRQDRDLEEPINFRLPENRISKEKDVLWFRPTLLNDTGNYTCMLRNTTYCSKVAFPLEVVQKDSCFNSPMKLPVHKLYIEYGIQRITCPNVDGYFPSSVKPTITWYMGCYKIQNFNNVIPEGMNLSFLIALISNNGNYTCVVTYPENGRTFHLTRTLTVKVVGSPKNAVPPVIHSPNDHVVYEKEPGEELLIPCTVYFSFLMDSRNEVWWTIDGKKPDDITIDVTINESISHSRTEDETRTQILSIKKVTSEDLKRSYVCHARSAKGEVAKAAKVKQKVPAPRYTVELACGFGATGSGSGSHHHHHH
Kind of test: SPR, summary. In general terms: In SPR one partner is held on a chip, and binding of the other changes the refractive index at the surface.

Test [2] has as its target T1, recombinant human IL1RAP ECD. Kind of test: SPR.
The target of test [3] is T2, human IL1RAP on cells (endogenous) (human, UniProt Q9NPH3 21-570).
T2 sequence (looked up): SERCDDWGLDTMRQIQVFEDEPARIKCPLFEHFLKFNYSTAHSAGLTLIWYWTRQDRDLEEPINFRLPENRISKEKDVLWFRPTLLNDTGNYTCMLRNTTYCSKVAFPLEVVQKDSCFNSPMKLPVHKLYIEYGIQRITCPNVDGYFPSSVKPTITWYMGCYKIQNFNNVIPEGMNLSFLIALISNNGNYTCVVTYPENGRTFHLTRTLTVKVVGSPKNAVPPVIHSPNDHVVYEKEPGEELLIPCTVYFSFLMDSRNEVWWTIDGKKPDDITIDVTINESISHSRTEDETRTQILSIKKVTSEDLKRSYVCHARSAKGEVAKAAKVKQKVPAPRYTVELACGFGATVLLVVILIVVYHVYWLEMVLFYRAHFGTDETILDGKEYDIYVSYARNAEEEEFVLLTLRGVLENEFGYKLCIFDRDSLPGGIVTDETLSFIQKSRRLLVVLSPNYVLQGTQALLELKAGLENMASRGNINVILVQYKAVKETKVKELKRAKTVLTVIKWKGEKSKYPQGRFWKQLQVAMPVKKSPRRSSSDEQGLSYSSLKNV
The test can be described thus: cell-based or functional assay.

In test [4] the target is T1, recombinant human IL1RAP ECD. Kind of test: SPR. This is another data set of the same source.
For test [5], the target named is T3, mouse IL1RAP ECD displayed on HEK-293F cells (pDisplay) (mouse, UniProt Q61730 21-367).
T3 sequence: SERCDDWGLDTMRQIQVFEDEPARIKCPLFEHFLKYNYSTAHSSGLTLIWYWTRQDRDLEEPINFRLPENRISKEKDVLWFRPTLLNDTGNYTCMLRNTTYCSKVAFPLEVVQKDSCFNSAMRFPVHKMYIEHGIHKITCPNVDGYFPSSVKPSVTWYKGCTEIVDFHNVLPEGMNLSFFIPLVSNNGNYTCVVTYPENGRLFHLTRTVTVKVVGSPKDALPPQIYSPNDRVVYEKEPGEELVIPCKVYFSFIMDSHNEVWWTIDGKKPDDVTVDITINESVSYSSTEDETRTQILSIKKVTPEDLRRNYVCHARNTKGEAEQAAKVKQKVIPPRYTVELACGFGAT
The test can be described thus: Murine Binder, summary.

The target of test [6] is T1, recombinant human IL1RAP ECD. The test can be described thus: SPR (ProteOn). Here is the method: The rates of IL1RAP ECD association and dissociation were measured for each variant. The biosensor surface was prepared by covalently coupling Goat anti-Human IgG (Fc) to the surface of a GLC chip (BioRad) using the manufacturer instructions for amine-coupling chemistry. […] The RU immobilized also included a goat anti-mouse Fc antibody that was added to capture other antibodies not included in the ones reported here. Since the mixture was 1:1 about 50% of these RU immobilized are expected to be goat anti-human Fc. The kinetic experiments were performed at 25° C. in running buffer (PBS pH 7.4, 0.005% P20, 3 mM EDTA). […] (1:3) serial dilutions of human IL1RAP ECD, starting at 400 nM were prepared in running buffer. […] The reference spots (Goat anti-Human IgG (Fc)-modified surface) containing no candidate captured were used as a reference surface. Capture of mAb was followed by a 3 minute injection (association phase) of antigen at 40 μL/min, followed by 10 minutes of buffer flow (dissociation phase). […] Data was processed on the instrument software. Double reference subtraction of the data was performed by subtracting the curves generated by buffer injection from the reference-subtracted curves for analyte injections. Kinetic analysis of the data was performed using 1:1 Langmuir binding model with group fit.

In test [7] the target is T4, rat IL1RAP ECD displayed on HEK-293F cells (pDisplay) (rat, UniProt Q63621 21-367).
T4 sequence: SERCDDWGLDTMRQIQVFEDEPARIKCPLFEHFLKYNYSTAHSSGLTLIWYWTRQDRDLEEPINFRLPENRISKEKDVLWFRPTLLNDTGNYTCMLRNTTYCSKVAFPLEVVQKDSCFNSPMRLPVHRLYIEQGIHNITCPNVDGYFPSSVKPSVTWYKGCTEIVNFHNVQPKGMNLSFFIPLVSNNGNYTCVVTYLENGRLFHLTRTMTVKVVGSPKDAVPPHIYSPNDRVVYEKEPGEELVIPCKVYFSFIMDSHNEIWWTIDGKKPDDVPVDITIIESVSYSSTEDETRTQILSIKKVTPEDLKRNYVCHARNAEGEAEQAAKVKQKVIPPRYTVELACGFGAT
Kind of test: HEK-293F cells (MSD).

In test [8] the target is T3, mouse IL1RAP ECD displayed on HEK-293F …. The test can be described thus: HEK-293F cells (MSD).
Test [9] addresses T5, cyno IL1RAP ECD displayed on HEK-293F cells (pDisplay) (cynomolgus monkey, UniProt P59822 21-367 (rhesus entry)).
T5 sequence: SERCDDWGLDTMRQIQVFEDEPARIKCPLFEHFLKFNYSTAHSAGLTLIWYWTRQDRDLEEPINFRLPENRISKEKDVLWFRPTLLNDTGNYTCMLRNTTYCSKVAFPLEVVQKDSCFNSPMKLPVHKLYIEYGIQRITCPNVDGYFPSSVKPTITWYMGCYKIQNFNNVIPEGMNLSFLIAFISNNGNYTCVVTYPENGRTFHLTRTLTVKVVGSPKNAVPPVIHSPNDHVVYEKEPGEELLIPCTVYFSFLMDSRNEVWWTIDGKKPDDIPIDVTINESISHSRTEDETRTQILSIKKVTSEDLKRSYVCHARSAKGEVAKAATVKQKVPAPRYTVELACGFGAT
The test can be described thus: HEK-293F cells (MSD).

The target of test [10] is T1, recombinant human IL1RAP ECD. Kind of test: SPR, summary. This is another data set of the same source.
For test [11], the target named is T6, recombinant cyno IL1RAP ECD (cynomolgus monkey, UniProt P59822 21-367 (rhesus entry)).
T6 construct: also called rcynoIL1RAP
T6 sequence: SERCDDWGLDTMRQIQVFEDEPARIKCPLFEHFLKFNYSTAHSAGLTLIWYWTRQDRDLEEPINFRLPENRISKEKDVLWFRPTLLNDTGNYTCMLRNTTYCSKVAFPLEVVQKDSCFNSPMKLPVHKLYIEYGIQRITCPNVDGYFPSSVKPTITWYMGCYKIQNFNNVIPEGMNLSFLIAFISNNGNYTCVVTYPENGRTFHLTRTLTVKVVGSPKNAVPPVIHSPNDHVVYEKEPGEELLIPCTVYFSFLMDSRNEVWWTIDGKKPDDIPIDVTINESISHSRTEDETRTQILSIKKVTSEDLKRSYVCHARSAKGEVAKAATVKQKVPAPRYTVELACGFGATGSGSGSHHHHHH
Kind of test: recombinant protein.

B1: IC3B10 (bispecific antibody, human IgG4 S228P, kappa, lambda, F234A L235A)
heavy 1: EVQLVESGGGLVQPGGSLKLSCAASGFTFNTYAMNWVRQASGKGLEWVGRIRSKYNAYATYYAASVKGRFTISRDDSKNTAYLQMNSLKTEDTAVYYCTRHGNFGNSYVSWFAYWGQGTLVTVSSASTKGPSVFPLAPCSRSTSESTAALGCLVKDYFPEPVTVSWNSGALTSGVHTFPAVLQSSGLYSLSSVVTVPSSSLGTKTYTCNVDHKPSNTKVDKRVESKYGPPCPPCPAPEAAGGPSVFLFPPKPKDTLMISRTPEVTCVVVDVSQEDPEVQFNWYVDGVEVHNAKTKPREEQFNSTYRVVSVLTVLHQDWLNGKEYKCKVSNKGLPSSIEKTISKAKGQPREPQVYTLPPSQEEMTKNQVSLTCLVKGFYPSDIAVEWESNGQPENNYKTTPPVLDSDGSFLLYSKLTVDKSRWQEGNVFSCSVMHEALHNHYTQKSLSLSLGK
light 1: QAVVTQEPSLTVSPGGTVTLTCRSSTGAVTTSNYANWVQQKPGQAPRGLIGGTNKRAPGTPARFSGSLLGGKAALTLSGAQPEDEAEYYCALWYSNLWVFGGGTKLTVLGQPKAAPSVTLFPPSSEELQANKATLVCLISDFYPGAVTVAWKADSSPVKAGVETTTPSKQSNNKYAASSYLSLTPEQWKSHRSYSCQVTHEGSTVEKTVAPTECS
heavy 2: not shown
light 2: not shown
notes: IgG4-PAA, Fab arm exchange
Take B1: the Kd in test [1], in [2] and in [4] was 4.77 nM in each case. Besides, the “EC50, T-cell mediated cytotoxicity” value in test [3] turned out to be 0.124 nM. For the same molecule, in test [5], the binding result is “binds”.

B2: IAPB09 (antibody, human IgG4 S228P, kappa, F234A L235A, V domains shown)
VH: QVQLVQSGAEVKKPGSSVKVSCKASGGTFSSYAISWVRQAPGQGLEWMGWISPIFGTANYAQKFQGRVTITADESTSTAYMELSSLRSEDTAVYYCARRYDNFARSGDLDYWGQGTLVTVSS
VL: not shown
notes: IgG4-PAA; whole chains; also called IAPB9
On to B2, for which the equilibrium dissociation constant (Kd) in test [6] and in test [10] was 6.59 nM throughout. In addition, in [6], the off-rate constant (koff) was found to be 0.00379 s⁻¹. Also, the kon in [6] came to 574000 M⁻¹ s⁻¹. The binding result in [7], in [8], in test [9] and in [11] was “binds” in each case.

B3: IAPB47 (antibody, human IgG4 S228P, kappa, F234A L235A, V domains shown)
VH: EVQLVQSGAEVKKPGESLKISCKGSGYSFTSYWIGWVRQMPGKGLEWMGIIYPSDSYTRYSPSFQGQVTISADKSISTAYLQWSSLKASDTAMYYCARRNSAENYADLDYWGQGTLVTVSS
VL: EIVLTQSPGTLSLSPGERATLSCRASQSISNDLNWYQQKPGKAPKLLIYYASSLQSGVPSRFSGSGSGTDFTLTINSLQPEDFATYYCQQSFTAPLTFGQGTKVEIKR
notes: IgG4-PAA; whole chains
For the molecule B3, the Kd in test [6] and in [10] was 1.24 nM throughout. The off-rate constant (koff) in test [6] came out at 0.000811 s⁻¹. The association rate constant (kon) in [6] turned out to be 653000 M⁻¹ s⁻¹. Further, the binding result in test [7], in [8], in test [9] and in [11] was “binds” each time.

B4: IAPB17 (antibody, human IgG4 S228P, kappa, F234A L235A, V domains shown)
VH: QVQLVQSGAEVKKPGSSVKVSCKASGGTFSSYAISWVRQAPGQGLEWMGGIIPIFGNANYAQKFQGRVTITADESTSTAYMELSSLRSEDTAVYYCARTIIYLDYVHILDYWGQGTLVTVSS
VL: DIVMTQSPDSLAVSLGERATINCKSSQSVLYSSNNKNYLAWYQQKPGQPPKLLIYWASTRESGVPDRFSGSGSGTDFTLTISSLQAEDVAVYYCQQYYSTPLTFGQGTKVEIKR
notes: IgG4-PAA; whole chains
Regarding B4, the Kd in test [6] and in test [10] was 8.51 nM each time. The off-rate constant (koff) in test [6] amounted to 0.00719 s⁻¹. Moreover, the on-rate (kon) in test [6] is 844000 M⁻¹ s⁻¹. Also, the binding result in test [7], in test [8], in [9] and in test [11] was “binds” in each case.
